Reference: patent publication US20250034266A1

Key:
[1] = molecular target: human CCR8 (human) (UniProt P51685); test: FACS on HEK293-human CCR8 cells
[2] = molecular target: human CCR8 (human) (UniProt P51685); test: FACS, competition with AF647-human CCL1 on CHO-K1-human CCR8 cells
[3] = molecular target: cynomolgus CCR8 (cynomolgus) (UniProt G7NYJ2); test: FACS on ExpiCHO-S-cynomolgus CCR8 cells
[4] = molecular target: human CCR8 (human) (UniProt P51685); test: FACS on HuT78 cells (endogenous human CCR8)
[5] = molecular target: human CCR8 (human) (UniProt P51685); test: FACS on HEK293-human CCR8 cells; remark: listed apart in the source
[6] = molecular target: cynomolgus CCR8 (cynomolgus) (UniProt G7NYJ2); test: FACS on HEK293-cynomolgus CCR8 cells
[7] = molecular target: human CCR8 (human) (UniProt P51685); test: FACS, competition with AF647-human CCL1 on CHO-K1-human CCR8 cells; remark: listed apart in the source
[8] = molecular target: T1, human CCR4 (human) (UniProt P51679); test: FACS on ExpiCHO-S-human CCR4 cells
T1 sequence (looked up): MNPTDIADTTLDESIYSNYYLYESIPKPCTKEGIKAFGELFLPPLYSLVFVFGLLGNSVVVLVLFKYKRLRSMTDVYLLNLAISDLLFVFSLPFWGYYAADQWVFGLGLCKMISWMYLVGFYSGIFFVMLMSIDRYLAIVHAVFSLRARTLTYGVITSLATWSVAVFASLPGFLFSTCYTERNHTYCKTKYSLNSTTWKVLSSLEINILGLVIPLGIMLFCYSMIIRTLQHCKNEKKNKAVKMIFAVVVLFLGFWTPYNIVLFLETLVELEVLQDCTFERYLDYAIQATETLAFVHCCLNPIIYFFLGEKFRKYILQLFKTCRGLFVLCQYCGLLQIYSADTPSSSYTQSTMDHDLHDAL

[9] = molecular target: cynomolgus CCR8 (cynomolgus) (UniProt G7NYJ2); test: FACS on HEK293-cynomolgus CCR8 cells; remark: listed apart in the source
[10] = molecular target: human CCR8 (human) (UniProt P51685); test: FACS on CHO-K1-human CCR8 cells
[11] = molecular target: human CCR8 (human) (UniProt P51685); test: FACS on HuT78 cells (endogenous human CCR8); remark: listed apart in the source
[12] = molecular target: human CCR8 (human) (UniProt P51685); test: FACS, competition with CCL1 on CHO-K1-human CCR8 cells
[13] = molecular target: human CCR8 (human) (UniProt P51685); test: FACS, competition with AF647-human CCL1 on CHO-K1-human CCR8 cells; remark: listed apart in the source
[14] = molecular target: cynomolgus CCR8 (cynomolgus) (UniProt G7NYJ2); test: FACS on HEK293-cynomolgus CCR8 cells; remark: listed apart in the source
[15] = molecular target: human CCR8 (human) (UniProt P51685); test: FACS on HEK293-human CCR8 cells; remark: listed apart in the source
[16] = molecular target: T2, human CCR1 (human) (UniProt P32246); test: FACS on ExpiCHO-S-human CCR1 cells
T2 sequence (looked up): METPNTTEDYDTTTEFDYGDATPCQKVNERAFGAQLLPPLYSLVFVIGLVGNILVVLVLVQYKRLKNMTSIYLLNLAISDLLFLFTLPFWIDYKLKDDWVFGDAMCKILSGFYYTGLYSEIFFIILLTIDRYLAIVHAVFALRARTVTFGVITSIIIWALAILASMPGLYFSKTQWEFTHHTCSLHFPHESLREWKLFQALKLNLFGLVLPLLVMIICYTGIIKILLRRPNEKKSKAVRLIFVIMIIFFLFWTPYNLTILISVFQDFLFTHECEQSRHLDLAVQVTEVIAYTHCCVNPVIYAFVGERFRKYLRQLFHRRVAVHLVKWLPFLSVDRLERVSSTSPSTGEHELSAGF

[17] = molecular target: human CCR8 (human) (UniProt P51685); test: FACS, competition with CCL1 on CHO-K1-human CCR8 cells; remark: listed apart in the source
[18] = molecular target: cynomolgus CCR8 (cynomolgus) (UniProt G7NYJ2); test: FACS on HEK293-cynomolgus CCR8 cells; remark: listed apart in the source
[19] = molecular target: human CCR8 (human) (UniProt P51685); test: FACS, competition with AF647-human CCL1 on CHO-K1-human CCR8 cells; remark: listed apart in the source
[20] = molecular target: human CCR8 (human) (UniProt P51685); test: FACS on HEK293-human CCR8 cells; remark: listed apart in the source
[21] = molecular target: cynomolgus CCR8 (cynomolgus) (UniProt G7NYJ2); test: FACS on HEK293-Cynomolgus CCR8 cells
[22] = molecular target: human CCR8 (human) (UniProt P51685); test: flow cytometry on TALL-1 cells (endogenous CCR8)

human CCR8 (human), sequence (P51685 whole entry): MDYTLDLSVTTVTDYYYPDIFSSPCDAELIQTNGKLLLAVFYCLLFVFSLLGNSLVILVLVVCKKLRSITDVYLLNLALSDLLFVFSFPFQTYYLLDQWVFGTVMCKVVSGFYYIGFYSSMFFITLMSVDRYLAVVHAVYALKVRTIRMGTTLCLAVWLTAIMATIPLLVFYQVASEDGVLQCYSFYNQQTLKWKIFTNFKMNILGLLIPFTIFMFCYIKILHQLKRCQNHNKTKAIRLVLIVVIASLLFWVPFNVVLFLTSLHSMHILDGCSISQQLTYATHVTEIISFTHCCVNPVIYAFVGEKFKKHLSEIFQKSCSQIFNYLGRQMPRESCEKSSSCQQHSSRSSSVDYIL
cynomolgus CCR8 (cynomolgus), sequence (G7NYJ2 entry or part of it): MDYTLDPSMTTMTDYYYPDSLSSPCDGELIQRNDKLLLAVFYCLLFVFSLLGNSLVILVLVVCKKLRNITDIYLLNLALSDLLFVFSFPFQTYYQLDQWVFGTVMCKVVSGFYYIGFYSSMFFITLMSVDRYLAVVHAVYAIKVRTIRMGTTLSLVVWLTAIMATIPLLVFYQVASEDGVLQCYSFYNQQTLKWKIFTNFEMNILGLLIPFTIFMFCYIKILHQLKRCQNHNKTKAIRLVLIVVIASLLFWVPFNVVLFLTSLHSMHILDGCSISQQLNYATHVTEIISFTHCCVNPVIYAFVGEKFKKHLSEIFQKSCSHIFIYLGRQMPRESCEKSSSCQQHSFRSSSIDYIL

Max MFI [1] [MFI]	Max Inhibition (%) [2] [%]	Max MFI [3] [MFI]	Max MFI [5] [MFI]	Max MFI [6] [MFI]	Max Inhibition (%) [7] [%]	Max MFI [8] [MFI]	Max Inhibition (%) [13] [%]	Max MFI [14] [MFI]	Max MFI [15] [MFI]	Max MFI [16] [MFI]	Max MFI [18] [MFI]	Max MFI [20] [MFI]	Substance	further results
222	-4.1	13	167	120	-13	7	27.4	14300	180	20.3	331		Human IgG1 (antibody)	Max MFI [4]: 7820 MFI; Max MFI [9]: 5690 MFI; Max MFI [10]: 3860 MFI; Max MFI [11]: 16900 MFI; Max Inhibition (%) [12]: -4.58%; Max Inhibition (%) [17]: 17.8%
261	2.1	5	49	158	-13.9	6.6	28.7	47	18	267	40	11	Mouse IgG2a (antibody)	Max Inhibition (%) [19]: 12.3%
												349	Mouse IgG2a isotype control (antibody)	Max MFI [21]: 396 MFI
													HuIgG1-G1m Isotype (antibody)	Maximum MFI [22]: 5.96 MFI
